# In the DeepSol protein solubility set:
# Experiment: soluble on expression in E. coli; label from the status in PepcDB or PDB records
row,Sequence,soluble on expression in E. coli
1,MGHHHHHHSHMKNLINWFEIPVTDMARAIAFYEQVMQISLRRETMDGADLAVFPYAEPGPGGALIKQDDVAPVAQGVVIYLHTADLLASIERVVLAGGKCVLEPMVPGDDIGTIALFIDSEGNRIGLHQPA,soluble
2,MGHHHHHHSHMKQKLLVTLLGLSALGASPVFAANTNVDLAEDAYIYGYSIDEAYKFFYHTAVENNYPLNRFQNIRALADDSYTAHPTINNDTLHLMGWLDVAAEPVIVSVPDMDEGRYWILHTMDMGHYTNAAFSSRTRGTKGGQFMFAAQDWQGEVPASVDEVVRVDSNLVKLMGRIMAVNDEDAKVALNYMDQWNIRTLSEYLGKNGPKPVQRTYPDPKKSTWLERVNFVLCDGSMGNADKQWLDKYQSIGVEPCKTDFTPEQLKLAKVGEKKGMEHLVELAPKMTDARTLLGTRDTLGDAPRDIFAEGTYLGQWGLPPIEASYRKSDFDSIGQKLDGSKHDYVMRFKAPNVSEFWSVTIYGNDNRLMAKNDLNRHSRGDRTMKADKDGYYTIYMSANEKGRADDPNFLPVPEKPFYAIMRFYGADDAIQSGEYQMPEIKVVK,soluble
3,MGHHHHHHSHMLLPRGLDIKQEELGDLVDKEMAATSAAIETATARIEEMLSKSRAGDTGVKLEVNERILGCCTSLMQAIQVLIVASKDLQREIVESGRGTASPKEFYAKNSRWTEGLISASKAVGWGATVMVDAADLVVQGRGKFEELMVCSHEIAASTAQLVAASKVKADKDSPNLAQLQQASRGVNQATAGVVASTISGKSQIEETDNMDFSSMTLTQI,soluble
4,MGHHHHHHSHMMQESGTETKSNGSAIQNGSGGSNHLLECGGLREGRSNGETPAVDIGAADLAHAQQQQQQWHLINHQPSRSPSSWLKRLISSPWELEVLQVPLWGAVAETKMSGPVCQPNPSPF,not soluble
5,MGHHHHHHSHMPFKLFKKLTISSVVTSATVNWATLASRTVFILPKRVLPYLRSVARLTRVVIAMDRYGGLLGGFLRAVPPVQKPLSLTDGNKFREGIMSEVGKYVSTLVDPRNMMLDSFHHLKHNKSLQGSFLVHAGTVSDQEVCGTPMFCYKDGLSNPEIDRLLTPISLTRLTVPNNENSDVFRIGNIIYSEDSGLFDIIPTLRTRLMERNLHEGLVFVGPLIKNINSSFVNKITTAIKGDTVLNESLSHGLVLKLPVEQFMDFETTNTFHYTGRLPMTHRSYIYYALGYVITADGTQSLLQKFFRTPIEGPEFTRLVRDYFAGEIRNFFLGDNDFGQGNFLMFGAVCRCGYFPEDSLLTRTRVSIKGGGLSLIEIPDFTVSRGPWQFI,not soluble
6,MGHHHHHHSHMPKNQEDSEEKGEKDEQTAKFLHKLAENGKDRGLPDCVVAQYEKNAWEATNSDEKYKSCEKCGMPPPPPIDGAKNSVVEEVCKNCETINEKPIGIESQILEKRRNEEILKRKEERKSLKRSAEESVTNSAPEKIQKKVHVKIMPRKCAPQILRRSLVPPPILTPKSAKKKLKLAENKEPDFLKALLNVTGNPV,not soluble
7,MGHHHHHHSHMPKVYGSLIDTETRCRHYFTEEDIIAIKFKCCNKYYPCYKCHNEFEKHAIKRWSEPSFNEKAILCGVCKHELTINEYMMVERCPNCQSRFNNRCKYHYHIYFEI,soluble
8,MGHHHHHHSHMRDCCGMVSSGSLSSLKAAERTPGALFFSSSTPGRYYNYDSSSRPQSRSVMSDQCAGQWFLKACGLGEGDTEVFPTQHVVRALQTIFELNVQAFAGGAMGAVNGMQPHGVPDKSSVQSDEVWVGVVYGLAATMIQEVMHSFSHLSTICILAQKTSSTTKFLQGITQCHLVRL,not soluble
9,MGHHHHHHSHMRLSQKWQVINQRSLLCGEDEAADENPESQEMLEEQLVRMLTREVMDLITVCCVSKKGADHSSAPPADGDDEEMMATEVTPSAMAELTDLGKCLMKHEDVCTALLITAFNSLAWKDTLSCQRTTSQLCWPLLKQVLSGTLLADAVTWLFTSVLKGLQMHGQHDGCMASLVHLAFQIYEALRPRYLEIRAVMEQIPEIQKDSLDQFDCKLLNPSLQKVADKRRKDQFERLIAGCIGKPLGEQFRKEVHIKNLPSLFKKTKPMLETEVLDNDGGGLATIFEP,not soluble
10,MGHHHHHHSHMSNWLEHSVQVEVEAPIDLVWGLWADLEQMPNWMKWIDSVKVPPENPDLSLWKLNTGGLEFTWKSRITKVITNQIIQWESIDGLPNQGAIRFYDRHGHSIVKMTISYAIPGFLGKIMDNLFLG,not soluble
11,MGHHHHHHSHMSQPPLLPASAETRKFTRALSKPGTAAELRQSVSEVVRGSVLLAKPKLIEPLDYENVIVQKKTQILNDCLREMLLFPYDDFQTAILRRQGRYICSTVPAKAEEEAQSLFVTECIKTYNSDWHLVNYKYEDYSGEFRQLPNKVVKLDKLP,not soluble
12,MGHHHHHHSHMTLVLSMNRFCEPIVSEGAAEIAGYQTLWEADSYGGPSPPGPAQAPLQGDRGAGPPLAGSHYRGISNPITTSKITYFKRKYVEEEDFHPPLSSCSHKEQSRGQLVEDMTIKRHQLRNKYKTRIQGFLCDAARFLYPSNKCICDRLKNDD,not soluble
13,MGHHHHHHSHNDGRIMGFVSRSQERRLLKKTMSGTFLLRFSESSEGGITCSWVEHQDDDKVLIYSVQPYTKEVLQSLPLTEIIRHYQLLTEENIPENPLRFLYPRIPRDEAFGCYYQEKVNLQERRKYLKHRLIVVSNRQVDELQQPLELKPEPELESLELELGLVPEPELSLDLEPLLKAGLDLGPELESVLESTLEPVIEPTLCMVS,soluble
14,MGHQNAAVSENQNHDDGAASSPGFKLVGFSKFVRKNPKSDKFKVKRFHHIEFWCGDATNVARRFSWGLGMRFSAKSDLSTGNMVHASYLLTSGDLRFLFTAPYSPSLSAGEIKPTTTASIPSFDHGSCRSFFSSHGLGVRAVAIEVEDAESAFSISVANGAIPSSPPIVLNEAVTIAEVKLYGDVVLRYVSYKAEDTEKSEFLPGFERVEDASSFPLDYGIRRLDHAVGNVPELGPALTYVAGFTGFHQFAEFTADDVGTAESGLNSAVLASNDEMVLLPINEPVHGTKRKSQIQTYLEHNEGAGLQHLALMSEDIFRTLREMRKRSSIGGFDFMPSPPPTYYQNLKKRVGDVLSDDQIKECEELGILVDRDDQGTLLQIFTKPLGDRPTIFIEIIQRVGCMMKDEEGKAYQSGGCGGFGKGNFSELFKSIEEYEKTLEAKQLVG,soluble
15,MGHVSNSPFSVDVLVVGGGPAGSAAAIHAAKAGYSVLLIDAQPFPRDKTCGDGLTPRAVHQLEALGVDVTSRYRSFGLKLHGFGGSVTVPWPESHFGQVSSAMPRMKFDAMLWEMAAQHATTWTATASEVEIDSAIRSVTMSDGRVVKPRSVIVADGVRSTFGKLLGRTWHRGEVYGIAARSYCTTPRSTEPWMHSHLELRDDSTTLPGYGWIFPIGDGTANVGCGALSTDKRPAKINTKKLLRHYASQQTDWEFGTPQRVASALLPMGGAVSTIAGPNWMLIGDAAACVNPLNGEGIDYGLETAALAVAHLDNPLEWPHILRETYGEAFLLARTAARLLTYPQFLPLTGPIALRTPLMASAARLMGNLVTEEDKDIVARAWRAAGWGVTKIRGGSPLWDLEHHHHHH,not soluble
16,MGIKKKYGEGKMDIKPIRKKRVYQAIIEQIQQFIRQGQLKPGDKLPSERDLAEKFQVSRTTIKEAIAVMEAIGVLEIRPGVGTFVRETGNHFLDLNYIFGDDDTEIQELMEFRQAIEVEAAYYAAIRGTEDGKRKLTQLFSELEKEVMSGKLPAKSDFSFHMQISSMSQNALFLRIMEFISDKLFKSVTKNAVNTFAGAGDPVRVLQEHRAIYEAILSGDGVKARQAMRYHLESVIARYKGI,soluble
17,MGITALAFDFGTKSIGCAIGQSITGTAQALPAFKAQDGIPNWEAIEKCLKEWKPDVVIVGLPLNMDGTEQDLTLRARKFANRLQGRFGVNVHLQDERLTTTQARSEIFERGGFKALKKGKIDGVSACLILESWFEYAEY,not soluble
